Measurements published in IntAct's records for PubMed 29892012.

B1: Protein arginine N-methyltransferase 8 (Homo sapiens), Q9NR22 (parent)
chain: MGMKHSSRCLLLRRKMAENAAESTEVNSPPSQPPQPVVPAKPVQCVHHVSTQPSCPGRGKMSKLLNPEEMTSRDYYFDSYAHFGIHEEMLKDEVRTLTYRNSMYHNKHVFKDKVVLDVGSGTGILSMFAAKAGAKKVFGIECSSISDYSEKIIKANHLDNIITIFKGKVEEVELPVEKVDIIISEWMGYCLFYESMLNTVIFARDKWLKPGGLMFPDRAALYVVAIEDRQYKDFKIHWWENVYGFDMTCIRDVAMKEPLVDIVDPKQVVTNACLIKEVDIYTVKTEELSFTSAFCLQIQRNDYVHALVTYFNIEFTKCHKKMGFSTAPDAPYTHWKQTVFYLEDYLTVRRGEEIYGTISMKPNAKNVRDLDFTVDLDFKGQLCETSVSNDYKMR
partner: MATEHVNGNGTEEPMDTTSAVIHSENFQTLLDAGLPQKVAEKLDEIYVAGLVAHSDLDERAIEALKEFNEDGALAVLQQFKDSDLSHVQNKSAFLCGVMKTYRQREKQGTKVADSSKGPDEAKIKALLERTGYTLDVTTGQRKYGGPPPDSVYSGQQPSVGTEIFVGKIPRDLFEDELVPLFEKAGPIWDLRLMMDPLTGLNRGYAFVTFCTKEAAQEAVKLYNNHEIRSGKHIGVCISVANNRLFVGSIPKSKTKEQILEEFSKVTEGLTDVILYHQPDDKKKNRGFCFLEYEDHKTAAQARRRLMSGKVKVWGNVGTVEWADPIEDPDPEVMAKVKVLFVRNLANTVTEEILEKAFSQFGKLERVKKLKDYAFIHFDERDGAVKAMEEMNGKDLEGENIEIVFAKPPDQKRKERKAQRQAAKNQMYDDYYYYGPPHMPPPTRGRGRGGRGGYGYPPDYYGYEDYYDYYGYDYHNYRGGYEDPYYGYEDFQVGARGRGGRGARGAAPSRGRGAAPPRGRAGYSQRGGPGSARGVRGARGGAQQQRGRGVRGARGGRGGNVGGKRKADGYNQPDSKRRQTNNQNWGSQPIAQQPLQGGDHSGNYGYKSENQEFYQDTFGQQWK
B2: Ribosome assembly protein METTL17, mitochondrial (Homo sapiens), Q9H7H0 (parent)
chain: MAAALKCLLTLGRWCPGLGVAPQARALAALVPGVTQVDNKSGFLQKRPHRQHPGILKLPHVRLPQALANGAQLLLLGSAGPTMENQVQTLTSYLWSRHLPVEPEELQRRARHLEKKFLENPDLSQTEEKLRGAVLHALRKTTYHWQELSYTEGLSLVYMAARLDGGFAAVSRAFHEIRARNPAFQPQTLMDFGSGTGSVTWAAHSIWGQSLREYMCVDRSAAMLVLAEKLLKGGSESGEPYIPGVFFRQFLPVSPKVQFDVVVSAFSLSELPSKADRTEVVQTLWRKTGHFLVLVENGTKAGHSLLMDARDLVLKGKEKSPLDPRPGFVFAPCPHELPCPQLTNLACSFSQAYHPIPFSWNKKPKEEKFSMVILARGSPEEAHRWPRITQPVLKRPRHVHCHLCCPDGHMQHAVLTARRHGRDLYRCARVSSWGDLLPVLTPSAFPPSTAQDPSES
partner: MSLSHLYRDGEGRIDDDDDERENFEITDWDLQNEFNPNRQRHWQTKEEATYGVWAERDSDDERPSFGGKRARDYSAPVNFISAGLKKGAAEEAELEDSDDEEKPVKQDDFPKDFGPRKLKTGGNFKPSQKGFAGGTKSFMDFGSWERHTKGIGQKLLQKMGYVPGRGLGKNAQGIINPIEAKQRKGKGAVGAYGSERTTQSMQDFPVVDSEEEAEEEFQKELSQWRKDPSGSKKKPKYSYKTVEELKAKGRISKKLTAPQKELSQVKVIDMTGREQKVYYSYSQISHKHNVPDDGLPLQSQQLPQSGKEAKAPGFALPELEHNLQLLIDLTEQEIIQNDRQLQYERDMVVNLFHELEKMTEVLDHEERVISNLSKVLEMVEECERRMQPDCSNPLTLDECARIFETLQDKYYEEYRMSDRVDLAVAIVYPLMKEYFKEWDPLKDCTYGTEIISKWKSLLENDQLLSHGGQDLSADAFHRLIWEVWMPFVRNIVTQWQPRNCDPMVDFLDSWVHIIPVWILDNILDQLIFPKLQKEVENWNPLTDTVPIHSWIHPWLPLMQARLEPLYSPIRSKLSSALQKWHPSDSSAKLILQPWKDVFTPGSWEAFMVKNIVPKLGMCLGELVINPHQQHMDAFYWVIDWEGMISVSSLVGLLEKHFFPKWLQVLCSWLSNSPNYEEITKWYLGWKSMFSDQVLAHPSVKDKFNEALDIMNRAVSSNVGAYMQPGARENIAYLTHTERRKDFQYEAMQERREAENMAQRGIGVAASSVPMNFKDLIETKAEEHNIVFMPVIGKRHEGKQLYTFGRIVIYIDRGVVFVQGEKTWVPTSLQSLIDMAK
B3: PDZ and LIM domain protein 1 (Homo sapiens), O00151 (parent)
chain: MTTQQIDLQGPGPWGFRLVGGKDFEQPLAISRVTPGSKAALANLCIGDVITAIDGENTSNMTHLEAQNRIKGCTDNLTLTVARSEHKVWSPLVTEEGKRHPYKMNLASEPQEVLHIGSAHNRSAMPFTASPASSTTARVITNQYNNPAGLYSSENISNFNNALESKTAASGVEANSRPLDHAQPPSSLVIDKESEVYKMLQEKQELNEPPKQSTSFLVLQEILESEEKGDPNKPSGFRSVKAPVTKVAASIGNAQKLPMCDKCGTGIVGVFVKLRDRHRHPECYVCTDCGTNLKQKGHFFVEDQIYCEKHARERVTPPEGYEVVTVFPK
B4: Ribosome assembly protein METTL17, mitochondrial (Homo sapiens), Q9H7H0 (parent)
chain: B2 chain
partner: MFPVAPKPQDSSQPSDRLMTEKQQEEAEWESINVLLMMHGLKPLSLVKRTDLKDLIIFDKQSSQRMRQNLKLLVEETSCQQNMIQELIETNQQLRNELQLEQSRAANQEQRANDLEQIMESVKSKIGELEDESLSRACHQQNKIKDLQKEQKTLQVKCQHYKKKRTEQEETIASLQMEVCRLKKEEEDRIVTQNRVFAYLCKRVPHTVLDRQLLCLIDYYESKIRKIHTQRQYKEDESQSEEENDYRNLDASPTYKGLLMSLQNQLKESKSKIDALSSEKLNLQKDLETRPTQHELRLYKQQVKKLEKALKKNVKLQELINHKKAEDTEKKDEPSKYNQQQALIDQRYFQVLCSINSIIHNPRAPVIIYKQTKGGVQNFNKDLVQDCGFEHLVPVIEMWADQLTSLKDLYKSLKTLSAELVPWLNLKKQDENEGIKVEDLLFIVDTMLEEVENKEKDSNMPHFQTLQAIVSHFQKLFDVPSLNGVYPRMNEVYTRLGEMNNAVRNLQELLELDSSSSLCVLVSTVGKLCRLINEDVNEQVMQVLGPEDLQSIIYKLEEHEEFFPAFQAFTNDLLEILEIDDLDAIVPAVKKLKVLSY

Variants of: B1
Conditions: with hnrpq_human SYNCRIP

Variant	effect of a mutation on the interaction
R350S	with no effect

Variants of: B2
Conditions: with tfp11_human TFIP11, Q9UBB9

Variant	effect of a mutation on the interaction
R212H	disrupting interaction strength

Variants of: B3
Conditions: with gfap_human GFAP

Variant	effect of a mutation on the interaction
A249V	with no effect

Variants of: B3
Conditions: with actn4_human ACTN4, O43707
Chain of actn4_human ACTN4, O43707 (O43707 whole entry): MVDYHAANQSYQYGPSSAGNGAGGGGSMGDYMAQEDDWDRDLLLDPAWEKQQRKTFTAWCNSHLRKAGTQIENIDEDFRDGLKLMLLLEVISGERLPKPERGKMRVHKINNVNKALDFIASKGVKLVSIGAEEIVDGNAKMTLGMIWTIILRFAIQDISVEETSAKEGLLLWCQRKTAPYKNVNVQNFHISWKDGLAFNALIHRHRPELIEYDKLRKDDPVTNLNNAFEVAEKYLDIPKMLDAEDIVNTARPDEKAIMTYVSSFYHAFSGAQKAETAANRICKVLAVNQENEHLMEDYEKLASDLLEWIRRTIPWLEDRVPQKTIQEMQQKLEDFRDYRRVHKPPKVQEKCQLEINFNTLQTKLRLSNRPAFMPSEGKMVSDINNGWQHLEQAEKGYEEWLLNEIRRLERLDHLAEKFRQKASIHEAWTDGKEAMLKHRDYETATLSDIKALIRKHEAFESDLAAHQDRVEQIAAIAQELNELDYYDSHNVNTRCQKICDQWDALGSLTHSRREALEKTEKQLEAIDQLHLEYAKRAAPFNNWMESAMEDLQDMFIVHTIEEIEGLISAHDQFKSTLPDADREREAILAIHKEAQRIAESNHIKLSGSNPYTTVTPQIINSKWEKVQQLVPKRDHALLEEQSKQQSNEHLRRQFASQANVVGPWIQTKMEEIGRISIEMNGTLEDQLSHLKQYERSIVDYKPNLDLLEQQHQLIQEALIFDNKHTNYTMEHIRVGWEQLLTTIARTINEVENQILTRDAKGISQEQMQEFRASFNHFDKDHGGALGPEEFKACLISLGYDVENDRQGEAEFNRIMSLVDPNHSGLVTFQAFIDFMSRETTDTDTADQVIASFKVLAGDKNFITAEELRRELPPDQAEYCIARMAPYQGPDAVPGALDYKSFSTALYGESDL

Variant	effect of a mutation on the interaction
A249V	with no effect

Variants of: B4
Conditions: with cep70_human CEP70, Q8NHQ1

Variant	effect of a mutation on the interaction
R212H	with no effect
